Results as given in FireProtDB (doi:10.1016/j.jmb.2003.11.056).
Where “and” joins values, the source holds several entries; their conditions need not be identical. Identical values can stand only once.

Details: Escherichia coli (strain K12), Thermal, Fluorescence, whole UniProt chain shown

B1: Iron-sulfur cluster assembly protein CyaY wild type, P27838 (protein)
chain: MNDSEFHRLADQLWLTIEERLDDWDGDSDIDCEINGGVLTITFENGSKIIINRQEPLHQVWLATKQGGYHFDLKGDEWICDRSGETFWDLLEQAATQQAGETVSFR
Tm (pH 7, phosphate 20 mM): 53.2 °C and 53.9 °C and 53.8 °C
Tm (pH 7.2, Hepes 10 mM): 49.2 °C and 50.9 °C
